{"source": "paper PMC5469345", "about": "“High Sensitivity Determination of TNF-α for Early Diagnosis of Neonatal Infections with a Novel and Reusable Electrochemical Sensor”", "molecular_target": "TNF-α (UniProt P01375 77-233)", "sequence (P01375 77-233)": "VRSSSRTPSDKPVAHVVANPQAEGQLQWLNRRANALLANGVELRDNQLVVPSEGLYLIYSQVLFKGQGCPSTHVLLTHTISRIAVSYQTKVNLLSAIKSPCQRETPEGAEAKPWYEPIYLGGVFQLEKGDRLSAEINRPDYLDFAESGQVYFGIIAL", "experiment": "electrochemical sensor (CV/EIS/DPV), displacement of aptamer from capture probe; aptamer pre-hybridized to capture probe T1 on gold electrode; 0.01 M PBS, 37 °C; TNF-α incubation in 0.01 M PBS pH 7.4, 37 °C, 2 h (1 h optimal); binding buffer listed as 10 mM Tris-HCl pH 7.4, 10 mM KCl, 10 mM MgCl2; DPV in 10x PBS", "details": "protein: commercial; chain copies: 3; single strand; on the sensor pre-hybridized to thiolated capture probe T1 (S1), from which TNF-α displaces it", "data": [{"binder": "TTTTTTTTTTTTTTTTGGTGGATGGCGCAGTCGGCGACAA (ssDNA)", "note": "[TNF-α aptamer (T2)]", "values": [{"measurement": "binding result", "result": "binds"}]}]}
